Where only a bound is given, the exact number is not on record here.

For the assay, the target named is T1, Human latent protein C (Enzyme Research Labs, Catalog # HPC 1001) (human, UniProt P04070 43-197; P04070 200-461).
T1 construct: Bought protein; It was biotinylated for panning and ELISA
Kind of assay: method not stated.

T1 sequence (P04070 43-197, form in doubt, chain 1 of 2): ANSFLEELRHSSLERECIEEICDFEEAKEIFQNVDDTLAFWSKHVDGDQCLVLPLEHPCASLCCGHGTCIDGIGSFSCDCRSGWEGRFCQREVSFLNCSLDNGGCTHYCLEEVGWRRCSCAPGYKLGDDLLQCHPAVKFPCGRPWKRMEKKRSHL
T1 sequence (P04070 200-461, form in doubt, chain 2 of 2): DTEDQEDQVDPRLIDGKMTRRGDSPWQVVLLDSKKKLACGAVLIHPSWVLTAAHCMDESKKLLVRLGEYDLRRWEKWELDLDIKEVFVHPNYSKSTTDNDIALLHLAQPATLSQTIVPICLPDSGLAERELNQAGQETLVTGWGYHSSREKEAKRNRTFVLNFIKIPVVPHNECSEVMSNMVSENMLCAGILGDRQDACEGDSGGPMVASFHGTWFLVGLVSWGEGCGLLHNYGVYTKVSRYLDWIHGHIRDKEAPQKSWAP

B1: Z3XM01011 (antibody, V domains shown)
VH: EVQLQQSGPGLVEPSQSLSITCTVSGFSLRSYGVHWVRQSPRKGLEWLGGIWSGGRIDYNAAYISRLTINKDNSKSQVFFKMNSLQADDTAIYYCVRKAIDLGDYYGMDYWGQGTSVTVSS
VL: DIVMTQFSQILSTSVGDRVSITCKASQDVGTAVAWYQQKPGQSPKLLIYWASTRHTGVPGRFTGSGSGTDFTLTIISVQSEDLADYFCQQYSSYPTFGGGTKLEIK
notes: Mouse monoclonal antibody from the same Fab phage library after one more round of panning, subcloned into a pBR322 expression vector
B1 displayed a Ka of no less than 1e+10 M⁻¹.

B2: Z1XM01701 (antibody, V domains shown)
VH: EVMLVESGGGLVKPGGSLKLSCAASGFTFSNYAMSWVRQTPAKRLEWVATISGGGGNTYYPDSVKGRFTISRDNAKNTLYLQMSSLRSEDTALYYCARHPNRFETAVDYWGQGTSVIVSS
VL: QIVLTQSPAILSASPGEKVTMTCRASSSVSSVHWYQQKPGSSPKPWIYATSNLASGVPTRFSGGGSGTSYSLTISRVEAEDAATYSCQQWSSDPPTFGGGTKLEIK
notes: It was subcloned into a pBR322 expression vector, expressed, purified and biotinylated; also called SE61z1zm-01071
In turn, B2 returned a Ka of no less than 1e+10 M⁻¹.

The record behind these values is patent publication US20070172906A1 (BIOSITE, published 2007).
